Assay results reported in US20240391997A1 (BRIGHTPATH BIOTHERAPEUTICS, published 2024).
Each block holds one binder with its values, some of them ahead of it.

How the values were obtained:
[1] = target: T1, human Tim-3 IgV domain (aa. 22-130) (human, UniProt Q8TDQ0 22-130); experiment: gel filtration of the complex and X-ray crystallography, 2.11 angstrom
T1 construct: range 22-130

[2] = target: T2, human Tim-3 expressed on cells (Jurkat cells stably expressing, Expi293 cells transiently expressing, … (human, UniProt Q8TDQ0 22-301)); experiment: flow cytometry on activated human CD4 T cells, KD from MFI curve
T2 construct: whole, on cells; One entry for all cell-surface forms; the cell type is named under assay; also called human Tim-3 expressed on the cell membrane

[3] = target: T2, human Tim-3 expressed on cells (Jurkat …); experiment: flow cytometry on Expi293 cells transiently expressing human Tim-3, KD from MFI curve
[4] = target: T3, biotinylated human Tim-3-Fc antigen (in-house preparation) (human, biotinylated); experiment: competition ELISA: biotinylated human Tim-3-Fc premixed with the antibody, added to plate-bound human Galectin-9 (blocked ligand); streptavidin-HRP; Binding (%)
T3 construct: limits of the Tim-3 part not given

[5] = target: T2, human Tim-3 expressed on cells (Jurkat …); experiment: flow cytometry on activated human CD8 T cells, KD from MFI curve
[6] = target: T2, human Tim-3 expressed on cells (Jurkat …); experiment: flow cytometry on Jurkat cells stably expressing human Tim-3, KD from MFI curve
[7] = target: T3, biotinylated human Tim-3-Fc antigen …; experiment: competition flow cytometry, biotinylated Tim-3-Fc premixed with antibody, binding to phosphatidylserine on apoptotic Jurkat cells (ligand not a protein)

binding result [1]: binds
B1: Hu149_83_scFv antibody (scFv, not shown: small tags and cut ends)
scFv: QVQLVQSGAEVKKPGASVKVSCKASGYTFTDYYMDWVRQAPGQGLEWLGYIYPNKGGTSYNQKFKGRVTMTTDKSTSTAYMELRSLRSDDTAVYYCARSGYGNYYTMDYWGQGTTVTVSSGGGGSGGGGSGGGGSGGGGSDIVMTQSQKFMSTSVGDRVSITCKASQSVGNNVAWYQQKPGQSPKLLIYYASNRYTGVPDRFTGSGSGTDFTLTISNMQSEDLADYFCQQHYSSPSTFGGGTKLEIK
notes: Secreted from E. coli with an N-terminal pelB leader (left out)

Kd [2]: 0.105 nM | Kd [3]: 0.891 nM | IC50 (read off the curve) [4]: ~0.5 nM | Kd [5]: 0.112 nM | Kd [6]: 0.0828 nM | IC50 [7]: 9.91 nM
B2: Ch003-LA antibody (antibody, V domains shown)
VH: EVMLMESGGGLVKLGGSLKLSCAASGFTFSSYYMSWVRQTPEKRLEWVATISNSGGSIYYLDSVKDRFTISRDNAKNTLYLQMSSLNSEDTAVYYCARDPYYSNYVPMDYWGQGTSVTVSS
VL: SIVMTQTPKFMSTSVGDRVSVTCKASQYVDTYVAWYQQKPGQSPKPLIYSASTRHTGVPARFTGSGSGTDFTLTISNVQSEDLAEYFCAQYSSSPLTFGAGTKLELK
notes: IgG1_LALA type antibody (L234A and L235A in the Fc region of IgG1)
